Reference: CN111410689A (UNIV CHONGQING TECHNOLOGY, dated 2020)

Target: T1, HPV18E7蛋白 (in HeLa cells and HPV18-positive cervical adenocarcinoma tissue) (HPV18, UniProt P06788 1-105)
T1 construct: whole, on cells; Native intracellular protein in cells, tissue sections or total lysate; also called HeLa细胞总蛋白中的HPV18E7蛋白
T1 sequence: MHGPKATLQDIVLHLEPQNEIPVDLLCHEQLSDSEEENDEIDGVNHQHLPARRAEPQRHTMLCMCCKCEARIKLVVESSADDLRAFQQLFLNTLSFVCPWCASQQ
Test: immunocytochemistry on HeLa cells (HPV18 positive), DAB

B1: 抗HPV16E7蛋白单抗69E2 (antibody, mouse IgG2a, kappa, V domains shown)
VH: QVQLQQSGPEVVRPGVSVKISCKGSGYTFTDYAMHWVKQSHAKSLEWIGVISTYNGNTNYNQKFKGKATVTVDKSSSTAYMELARLTSEDSAIYYCARRGFGNSWFAYWGQGTLVTVSA
VL: ENVLTQSPAIMSASPGGKVTMTCSASSGVSYMHWYQQKSSTSPKLWIYDTSNLASGVPGRFSGSGSGNSYSLTISSMEAEDVATYYCFQGSGYPFTFGSGTKLEIRR
notes: Mouse IgG2a from hybridoma, purified from ascites; also called HPV16E7-69E2; CCTCC NO:C2019181
binding result: no binding (tested: 7.8125ng/孔到1μg/孔)
